Biological target: FcγRIIIa on NK cells (human) (UniProt P08637)
Assay: cell-based or functional assay

Sequence of UniProt P08637 (P08637 17-254): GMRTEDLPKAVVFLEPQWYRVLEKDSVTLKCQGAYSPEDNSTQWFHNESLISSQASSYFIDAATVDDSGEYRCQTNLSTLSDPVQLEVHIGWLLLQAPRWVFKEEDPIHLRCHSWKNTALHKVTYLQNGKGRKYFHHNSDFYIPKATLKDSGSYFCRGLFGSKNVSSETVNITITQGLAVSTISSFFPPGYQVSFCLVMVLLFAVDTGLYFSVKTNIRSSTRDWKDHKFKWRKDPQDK

- ADCC EC50 (LDH release, Raji target cells, human PBMC effector cells): 0.046 µg/mL
Substance: wild type rituximab (antibody)
